Laboratory results reported in article PMC3910374 (Cancer research, 2013).

Key:
Assay in all cases: SPR
GST-Bcl-2ΔTM S70E = GST-Bcl-2ΔTM S70E (UniProt P10415 1-219, S70E)
[1] = biological target: Bcl-2ΔTM-His6 (unphosphorylated) (UniProt P10415 1-219)
GST-Bcl-2ΔTM (wt) = GST-Bcl-2ΔTM (wt) (UniProt P10415 1-219)
Sequence of GST-Bcl-2ΔTM (wt) (P10415 1-219, stated change not applied): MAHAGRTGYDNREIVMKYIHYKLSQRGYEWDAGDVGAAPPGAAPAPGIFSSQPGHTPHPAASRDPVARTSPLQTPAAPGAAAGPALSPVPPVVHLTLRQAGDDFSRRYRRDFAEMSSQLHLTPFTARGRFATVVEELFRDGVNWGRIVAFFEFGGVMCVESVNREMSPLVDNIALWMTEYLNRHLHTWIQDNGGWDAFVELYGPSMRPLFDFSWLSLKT

Sequence of Bcl-2ΔTM-His6 (unphosphorylated) (P10415 1-219, stated change not applied): as above
Sequence of GST-Bcl-2ΔTM S70E (P10415 1-219 S70E): as the sequence (P10415 1-219, stated change not applied) above, with S70E counted along it

B1: His6-tagged BakΔTM (domain or fragment, UniProt Q16611 1-186, looked up)
chain: MASGQGPGPPRQECGEPALPSASEEQVAQDTEEVFRSYVFYRHQQEQEAEGVAAPADPEMVTLPLQPSSTMGQVGRQLAIIGDDINRRYDSEFQTMLQHLQPTAENAYEYFTKIATSLFESGINWGRVVALLGFGYRLALHVYQHGLTGFLGQVTRFVVDFMLHHCIARWIAQRGGWVAALNLGNG
- binding result (GST-Bcl-2ΔTM S70E): binds
- Kd [1]: ~150 nM

Binder: RPEIWIAQELRRIGDEFNAYYARRVF [26-mer Bim BH3 peptide]
- Kd (GST-Bcl-2ΔTM (wt)): 7 nM
